From patent publication US20170306033A1 (Amgen, published 2017)

T1: human PAC1 receptor (human, UniProt P41586 21-468)
T1 sequence: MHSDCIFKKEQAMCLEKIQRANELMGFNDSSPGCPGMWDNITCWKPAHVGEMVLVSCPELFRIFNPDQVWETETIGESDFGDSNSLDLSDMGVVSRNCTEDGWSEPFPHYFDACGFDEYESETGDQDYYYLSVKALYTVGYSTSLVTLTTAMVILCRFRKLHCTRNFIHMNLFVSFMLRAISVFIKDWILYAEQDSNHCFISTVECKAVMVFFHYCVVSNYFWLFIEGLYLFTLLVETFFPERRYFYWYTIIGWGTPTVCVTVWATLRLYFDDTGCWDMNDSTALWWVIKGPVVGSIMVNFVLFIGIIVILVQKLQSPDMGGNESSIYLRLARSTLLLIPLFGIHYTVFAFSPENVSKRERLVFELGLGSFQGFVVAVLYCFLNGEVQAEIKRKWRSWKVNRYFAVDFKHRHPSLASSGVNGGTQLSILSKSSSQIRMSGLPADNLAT

B1: iPS:327870 (bispecific antibody, human IgG2, kappa, lambda)
light 1: not shown
heavy 1: QVQLQQSGPGLVKPSQTLSLTCAISGDSVSSNSATWNWIRQSPSRGLEWLGRTYYRSKWSNHYAVSVKSRITINPDTSKSQFSLQLNSVTPEDTAVYYCARGTWKQLWFLDHWGQGTLVTVSSASTKGPSVFPLAPCSRSTSESTAALGCLVKDYFPEPVTVSWNSGALTSGVHTFPAVLQSSGLYSLKSVVTVPSSNFGTQTYTCNVDHKPSNTKVDKTVERKCCVECPPCPAPPVAGPSVFLFPPKPKDTLMISRTPEVTCVVVDVSHEDPEVQFNWYVDGVEVHNAKTKPREEQFNSTFRVVSVLTVVHQDWLNGKEYKCKVSNKGLPAPIEKTISKTKGQPREPQVYTLPPSREEMTKNQVSLTCLVDGFYPSDIAVEWESNGQPENNYDTTPPMLDSDGSFFLYSDLTVDKSRWQQGNVFSCSVMHEALHNHYTQKSLSLSPGK
light 2: QSVLTQPPSVSAAPGQKVTISCSGSSSNIGNNYVSWYQQLPGTAPKLLIYDNNKRPSGIPDRFSGSKSGTSTTLGITGLQTGDEADYYCGTWDSRLSAVVFGGGTKLTVLGQPKANPTVTLFPPSSEELQANKATLVCLISDFYPGAVTVAWKADGSPVKAGVETTKPSKQSNNKYAAKSYLSLTPEQWKSHRSYSCQVTHEGSTVEKTVAPTECS
heavy 2: QVQLVESGGGVVQPGRSLRLSCAASGFTFSSFGMHWVRQAPGKGLEWVAVISFDGSIKYSVDSVKGRFTISRDNSKNTLFLQMNSLRAEDTAVYYCARDRLNYYDSSGYYHYKYYGMAVWGQGTTVTVSSASTKGPSVFPLAPCSRSTSESTAALGCLVKDYFPEPVTVSWNSGALTSGVHTFPAVLQSSGLYSLESVVTVPSSNFGTQTYTCNVDHKPSNTKVDKTVERKCCVECPPCPAPPVAGPSVFLFPPKPKDTLMISRTPEVTCVVVDVSHEDPEVQFNWYVDGVEVHNAKTKPREEQFNSTFRVVSVLTVVHQDWLNGKEYKCKVSNKGLPAPIEKTISKTKGQPREPQVYTLPPSRKKMTKNQVSLTCLVKGFYPSDIAVEWESNGQPENNYKTTPPMLKSDGSFFLYSKLTVDKSRWQQGNVFSCSVMHEALHNHYTQKSLSLSPGK
B2: iPS:327731 (bispecific antibody, human IgG1, kappa, lambda, N297G)
light 1: not shown
heavy 1: not shown
light 2: QSVLTQPPSVSAAPGQKVTISCSGSSSNIGNNYVSWYQQLPGTAPKLLIYDNNKRPSGIPDRFSGSKSGTSATLGITGLQTGDEADYYCGTWDSRLSAVVFGGGTKLTVLGQPKANPTVTLFPPSSEELQANKATLVCLISDFYPGAVTVAWKADGSPVKAGVETTKPSKQSNNKYAAKSYLSLTPEQWKSHRSYSCQVTHEGSTVEKTVAPTECS
heavy 2: QVQLVESGGGVVQPGRSLRLSCAASGFTFSSFGMHWVRQAPGKGLEWVAVISFDGSIKYSVDSVKGRFTISRDNSKNTLFLQMNSLRAEDTAVYYCARDRLNYYESSGYYHYKYYGMAVWGQGTTVTVSSASTKGPSVFPLAPSSKSTSGGTAALGCLVKDYFPEPVTVSWNSGALTSGVHTFPAVLQSSGLYSLESVVTVPSSSLGTQTYICNVNHKPSNTKVDKKVEPKSCDKTHTCPPCPAPELLGGPSVFLFPPKPKDTLMISRTPEVTCVVVDVSHEDPEVKFNWYVDGVEVHNAKTKPCEEQYGSTYRCVSVLTVLHQDWLNGKEYKCKVSNKALPAPIEKTISKAKGQPREPQVYTLPPSRKEMTKNQVSLTCLVKGFYPSDIAVEWESNGQPENNYKTTPPVLKSDGSFFLYSKLTVDKSRWQQGNVFSCSVMHEALHNHYTQKSLSLSPGK

What was measured:
human CGRP receptor = human CGRP receptor (human, UniProt Q16602 23-461; O60894 27-148); assay: cell-based or functional assay
human PAC1 receptor = target: T1, human PAC1 receptor; assay: cell-based or functional assay

Chain of human CGRP receptor (Q16602 23-461 limits assumed, chain 1 of 2): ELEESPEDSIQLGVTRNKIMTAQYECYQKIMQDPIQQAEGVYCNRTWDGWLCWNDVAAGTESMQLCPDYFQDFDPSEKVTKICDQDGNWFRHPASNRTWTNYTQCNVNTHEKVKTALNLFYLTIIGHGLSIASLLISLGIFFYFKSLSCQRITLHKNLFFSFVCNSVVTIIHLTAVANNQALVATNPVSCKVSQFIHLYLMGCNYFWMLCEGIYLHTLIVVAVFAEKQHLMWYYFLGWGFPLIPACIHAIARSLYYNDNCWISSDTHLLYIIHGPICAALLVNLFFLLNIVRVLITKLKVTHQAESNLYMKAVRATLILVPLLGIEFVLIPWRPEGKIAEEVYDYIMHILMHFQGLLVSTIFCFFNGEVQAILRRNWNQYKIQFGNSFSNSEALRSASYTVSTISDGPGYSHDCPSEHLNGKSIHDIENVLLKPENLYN
Chain of human CGRP receptor (O60894 27-148 limits assumed, chain 2 of 2): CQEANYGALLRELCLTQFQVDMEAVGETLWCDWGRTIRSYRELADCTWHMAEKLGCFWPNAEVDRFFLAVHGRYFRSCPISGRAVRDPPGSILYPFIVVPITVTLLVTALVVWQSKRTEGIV

Binder	% inhibition of human CGRPR (human CGRP receptor)	% inhibition of human PAC1 (human PAC1 receptor)
B1	67%	86%
B2	74%	74%
